{"source": "paper PMC12014896", "about": "(2025)", "binders": {"B1": {"name": "COVIC-359 (antibody, V domains shown)", "VH": "EVQLVESGGGLVQPGGSLRLSCKASGISVAPHAVTWVRQAPGKGLEWIGVIASNADTYYASWAKGRFTISRDNSKNTLYLQMNSLRAEDTAVYYCARHPGSAGYGYTYYYAMDPWGQGTLVTVSS", "VL": "DIQMTQSPSSLSASVGDRVTITCKASEDIRYGLNWYQQKPGKAPKLLIYGANTLEAGVPSRFSGSGSGTDYTLTISSLQPEDFATYYCQQGYSTPLTFGGGTKVEIK"}, "B2": {"name": "COVIC-361 (antibody, V domains shown)", "VH": "B1 VH", "VL": "DIQMTQSPSSLSASVGDRVTITCQASQDVKYAINWYQQKPGKAPKLLIYGTSSRGEGVPSRFSGSGSGTDYTLTISSLQPEDFATYYCQQGYVVSIFFGGGTKVEIK"}, "B3": {"name": "COVIC-147 (antibody, V domains shown)", "VH": "EVQLVESGGGLIQPGGSLRLSCAASGFTVSSIYMSWVRQAPGKGLEWVSIIYSRGSTDYADSVKGRFTISRDISKNTLYLQMNSLRAEDTAVYYCARDGTMVRGVHAFDIWGQGTMVTVSS", "VL": "DIQMTQSPPSLSASIGDRVTITCQASQDISNYLNWYQQKPGKAPKLLIYDASNLETGVPSRFSGSGSGTDFTLTISNLQPEDIVTYYCQQYDNLPSSFGQGTKLEIKR"}, "B4": {"name": "COVIC-300 (antibody, V domains shown)", "VH": "EVQLVESGGGLIQPGGSLRLSCAASGFIVSSNYMSWVRQAPGKGLEWVSVIYSGGITYFADSVKGRFTISRDISKNTLYLQMNSLRAEDTAVYYCARDRRLPHYYYGLDVWGQGTTVTVSS", "VL": "QSVLTQPASVSGSPGQSITISCTGTSSDVGGYNYVSWYQQHPGKAPTLIIYEVTSRPSGVSNRFSGSKSGNTASLTISGLQAEDEADYYCSSYTTSNTLGGVFGTGTKVTVL"}, "B5": {"name": "COVIC-263 (antibody, V domains shown)", "VH": "QVQLQESGPRLVKPSETLSLTCTVSGGSISGSNYFWGWIRQPPGKGLEWIGTIYYGGSTYYNPSLKSRVTISVDTSENQFSLKLSSVTAADTAVYYCANLAWLRGYFDYWGQGTLVTVSS", "VL": "NFMLTQPHSVSESPGKTVTISCTRSSGSIASNYVQWYQQRPGSAPTTVIYEDNQRPSGVPDRFSGSIDSSSNSVSLTISGLKTEDEADYYCQSYDSSNWVFGGGTKLTVLG"}, "B6": {"name": "COVIC-267 (antibody, V domains shown)", "VH": "EVQLVESGGGLVQPGGSLRLSCTVSGFSLSSYAMSWVRQAPGKGLEWIGIIGNSGNTYYASWAKGRFTISRDNSKNTLYLQMNSLRAEDTAVYYCARNWDPDSYEYTYATNSFDPWGQGTLVTVSS", "VL": "DIQMTQSPSSLSASVGDRVTITCQASESISSYLAWYQQKPGKAPKLLIYRASTLESGVPSRFSGSGSGTDFTLTISSLQPEDFATYYCQCTYGSSSSGSYGNAFGGGTKVEIK"}, "B7": {"name": "COVIC-56 (antibody)", "chain 1": "not shown", "chain 2": "QVQLQESGGGLVQAGGSLRLSCAASGRTFSEYAMGWFRQAPGKEREFVATISWSGGSTYYTDSVKGRFTISRDNAKNTVYLQMNSLKPDDTAVYYCAAAGLGTVVSEWDYDYDYWGQGTQVTVSSGGGGSGGGGSKRTVAAPSVFIFPPSDEQLKSGTASVVCLLNNFYPREAKVQWKVDNALQSGNSQESVTEQDSKDSTYSLSSTLTLSKADYEKHKVYACEVTHQGLSSPVTKSFNRGEC"}, "B8": {"name": "COVIC-303 (antibody, V domains shown)", "VH": "QVTLKESGPVLVKPTETLTLTCTVSGFSLSNARMGVSWIRQPPGKALEWLAHIFSNGEKSYSTSLKSRLTISKDTSKSQVVLTMTNMDPVDTATYYCARTLDYYDSSGYLVGGAFDIWGQGTMVTVSS", "VL": "QPGLTQPPSVSLAPGQTARITCGGNNIGSKSVHWYQQKPGQAPVLVVYDDSDRPSGIPERFSGSNAGNTATLTISRVEAGDEADYYCQVWDSRSDQYVFGTRTKLTVLG"}, "B9": {"name": "COVIC-260 (antibody, V domains shown)", "VH": "QVQLQESGPGLVKPSETLSLTCSVSGDSISSSDYSWGWIRQPPGKGLEWIGTIYYIKNTYYNPSLRSRVTLSVDTSKNLFSLKLSSVTAADTAVYYCARERPPFDVVVVPAARPYNWFDPWGLGTLVIVSS", "VL": "QSVLMQPPSVSGAPGQRVTISCTGSSSNIGAGYDVHWYQQLPGTAPKLLIYGNNNRPSGVPDRFSGSKSGTSASLAITGLQADDEADYYCQSYDSSLSGSKVFGGGTKLTVLG"}, "B10": {"name": "COVIC-185 (antibody, V domains shown)", "VH": "QVQLVQSGAEVKKPGASVRVSCKASGYTFTGYYMHWVRQAPGQGLEWMGWINPISDGTNYAQKFQGWVTMTRDTSISTVYMELSRLRSDDTAVYYCARGGSRCSGGNCYGWAYDAFDIWGQGTMITVSS", "VL": "QSALTQPASVSGSPGQSITISCTGTSSDVGGYNFVSWYQQHPGKAPKLMIYDVSKRPSGVSNRFSGSKSGNTASLTISGLQAEDEADCYCSSYTSSSTFVFGTGTKVTVL"}, "B11": {"name": "COVIC-338 (antibody, V domains shown)", "VH": "EVQLVESGGGLVQPGRSLRLSCAASGLTFEDYAMHWVRQPPGKGLEWVSGVSWNSGTIGYADSVKGRFTISRDNAKNSLYLHMRSLGAEDTAMYYCAKDMGGRFSFFSLENDAFDIWGQGTMVIVSS", "VL": "SYELTQPPSVSVSPGQTARITCSGDALPKQSTYWYQQKPGQAPVLVIYKDIERPSGIPERFSGSSSGTTVTLTISGVQAEDEADYYCQSADSSDTYVFGTGTKVTVL"}, "B12": {"name": "COVIC-298 (antibody, V domains shown)", "VH": "EVQLVQSGAEVKKPGESLKISCQGSGFSFSNYWIGWVRQMPGKGLEWMGIIYPDDSDTRYSPSFQGQVTISADKSISTAFLQWSSLKASDTAMYYCATRTGWTNDAFDIWGQGTMVTVSS", "VL": "not shown"}, "B13": {"name": "COVIC-159 (antibody, V domains shown)", "VH": "EVQLVESGGGLIQPGGSLRLSCAASGFTVSSNYMNWVRQAPGKGLEWVSVIYSGGSTYYADSVKGRFTISRDNSKNTLFLQMNSLRAEDSAVYYCARDLGPYGVDVWGQGTTVTVSS", "VL": "DIQLTQSPSFLSASVGDRVTITCWASQGISSYLAWYQQKPGKAPKLLIYAASTLQSGVPSRFSGSGSGTEFTLTISSLQPEDFATYYCQELNSYPLTFGQGTRLEIKR"}, "B14": {"name": "COVIC-157 (antibody, V domains shown)", "VH": "B13 VH with F79Y, A87T, S90T, G100V, P101A, V104M", "VL": "B13 VL with L46V, E90L, Y94N, Q100G, R103K, L104V"}, "B15": {"name": "COVIC-150 (antibody, V domains shown)", "VH": "B13 VH with F27V, N35S, Y58F, F79Y, S90T, G100S, P101Y, V104M", "VL": "B13 VL with R61K, E90Q, L96S, T97S, R103K"}, "B16": {"name": "COVIC-94 (antibody, V domains shown)", "VH": "EVQLVESGGGLVQPGGSLRLSCAASGFTFSPSWMGWFRQAPGKEREFVATINEYGGRNYADSVKGRFTISADNSKNTAYLQMNSLKPEDTAVYYCARVDRDFDYWGQGTLVTVSS"}, "B17": {"name": "COVIC-301 (antibody, V domains shown)", "VH": "EVQLVESGGGLIQPGGSLRLSCAASGVTVSSNYMSWVRQAPGKGLEWVSIIYPGGSRFYADSVKGRFTISRDNSKNTLYLQMNSLRAEDTAVYYCAREVRGWLDPWGQGTLVTVSS", "VL": "DVVMTQSPSFLSASVGDRVTITCRASQGISNYLAWYQQKPGKAPKLLIYASSTLQSGVPSRFSGSGSGTEFTLTISSLQPEDFATYYCQHLNSYPHFGQGTRLEIKR"}, "B18": {"name": "COVIC-28 (antibody, V domains shown)", "VH": "QVQLVQSGAEVKKPGASVKVSCKASGYTFTSYYMHWVRQAPGQGLEWMGIINSSGGSTSYAQKFQGRVTMTRDTSTSTVYMELSSLRSEDTAVYYCARPPRNYYDRSGYYQRAEYFQHWGQGTLVTVSS", "VL": "DIQLTQSPSSLSASVGDRVTITCQASQDISNYLNWYQQRPGKAPKLLIYDASNLETGVPSRFSGSGSGTDFTFTISSLQPEDIATYYCQQYDNPPLTFGGGTKLEIK"}, "B19": {"name": "COVIC-335 (antibody, V domains shown)", "VH": "QVQLVESGGGVVQPGRSLRLSCAASGFTFSRYGMHWVRQAPGKGLEWVALISSGGSNKYYADSVKGRFTISRDNSKNTLYLEMNSLRAEDTAVYYCAKDAIYDYIWGAYRENWFDPWGQGTLVTVSS", "VL": "DIQMTQSPSSLSASVGDRVTITCRASQSISNYLNWYQQKPGKAPNLLIYAASSLQSGVPSRFSGSGSGTDFTLTISSLQPEDFATYYCQQTSSPPLTFGQGTKVEIK"}, "B20": {"name": "COVIC-148 (antibody, V domains shown)", "VH": "QVQLVQSGAEVKKPGASVKVSCKASGYTFTSYDINWVRQATGQGLEWMGWMNPNSGNTGYAQKFQGRVTMTRDTSINTAYMELSSLRSEDTAVYFCARGGRYCSDVTCYSGEPFDYWGQGTLVTVSS", "VL": "EIMLTQSPDFQSVTPKEKVTITCRASQSIGSSLHWYQQKPDQSPKLLIKFASQSISGVPSRFSGSGSGTDFTLTINSLEAEDAAAYYCHQSSSLPHTFGPGTKVEIKR"}, "B21": {"name": "COVIC-334 (antibody, V domains shown)", "VH": "QMQLVQSGPEVKKPGTSVKVSCKASGFTFSSSAVQWVRQARGQGLEWIGWIVVGSGNANYAQKLQERVSITRDMSTSTAYMELSSLRPEDTAVYYCAAPHCSRTICHDGFDMWGQGTMVTVSS", "VL": "EIVLTQSPGTLSLSPGERATLSCRASQSVRSSYLAWYQQKPGQAPRLLMFVASSRATGIPDRFSGSGSGTDFTLTISRLEPEDFAVYYCQQYDTSPWTFGQGTKVEIK"}, "B22": {"name": "COVIC-259 (antibody, V domains shown)", "VH": "EVQLVESGGGVVQPGRSLRLSCAASGFTFSSYAMHWVRQAPGKGLEWVAVLSYDGSNKYNADSVKGRFTISRDNSKNTLYLQMNSLRVEDTAMYYCARDGVSVTMVRGVIGPLCDYWGQGTLVTVSS", "VL": "not shown"}, "B23": {"name": "COVIC-96 (antibody, V domains shown)", "VH": "QVQLVQSGAEVKKPGSSVKVSCKASGGTFSTSTISWVRQAPGQGLEWMGGIIPLFGSPNYAQKFQGRVTITADESTSTAYMELSSLRFEDTAVYYCARLGQWDLLPRWGQGTLVTVSS", "VL": "EIVLTQSPGTLSLSPGERATLSCRASQSVSSSYLAWYQQKPGQAPRLLIYGASSRASGTPDRFSGRGSGTDFTLTISRLEPEDFAVYYCQQYGSSYTFGQGTKLEIK"}}, "note": "Numbering of substitutions follows the chain as printed."}
{"target": "SARS-CoV-2 spike RBD (Wuhan-Hu-1) (Severe acute respiratory syndrome …, UniProt P0DTC2)", "assay": "SPR", "units": {"Kd": "nM"}}
{"binder": "B1", "Kd": 0.0139}
{"binder": "B2", "Kd": 0.0241}
{"binder": "B3", "Kd": 2.3}
{"binder": "B4", "Kd": 1.13}
{"binder": "B5", "Kd": 0.0861}
{"binder": "B6", "Kd": 1.95}
{"binder": "B7", "Kd": 94.2}
{"binder": "B8", "Kd": 0.168}
{"binder": "B9", "Kd": 0.0696}
{"binder": "B10", "Kd": 12.3}
{"binder": "B11", "Kd": 0.00664}
{"binder": "B12", "Kd": 0.629}
{"binder": "B13", "Kd": 24.9}
{"binder": "B14", "Kd": 6.65}
{"binder": "B15", "Kd": 141}
{"binder": "B16", "Kd": 5.62}
{"binder": "B17", "Kd": 1.55}
{"binder": "B18", "Kd": 12.3}
{"binder": "B19", "Kd": 9}
{"binder": "B20", "Kd": 1.85}
{"binder": "B21", "Kd": 0.0568}
{"binder": "B22", "Kd": 2.1}
{"binder": "B23", "Kd": 92.2}
